These results are taken from patent KR20230010676A.

In this assay the target is SARS-CoV-2 스파이크 D19 (VSV 슈도바이러스) (SARS-CoV-2) (UniProt P0DTC2). The experiment in a line: cell-based or functional assay.

Turning to S2D106-LS (antibody), the EC50 (neutralisation, interpolated) came out at 3.6 ng/mL; the EC90 (neutralisation, interpolated) came out at 15.4 ng/mL; the IC50 (neutralisation) worked out at 3.38 ng/mL.
